In PMC4336609:

Target: 14-3-3β (UniProt P31946)
Assay: GST-14-3-3β pull-down from cell lysate
Conditions: reference: wild type; sites T181

XLF (from UniProt Q9H9Q4) T181A
binding against the reference: lost
